Test results reported in article PMC1800861, “Characterization of an Oct1 orthologue in the channel catfish, Ictalurus punctatus: A negative regulator of immunoglobulin gene transcription?”.

Key:
[1] = biological target: T1, Oct2β (in vitro translated) (Ictalurus punctatus (channel catfish), UniProt O13007 1-480); assay: EMSA; 1x Promega binding buffer (from 5x, composition not given), 30 min preincubation at room temperature then 30 min with probe; 5% native PAGE at 4°C; 100x competitor; pH and salt not given; extract EMSA as in Ross et al; settings: protein: ivt; label: 32P-dATP Klenow fill-in; 5' overhang 4 nt on both strands as annealed; labeled by Klenow fill-in
T1 sequence: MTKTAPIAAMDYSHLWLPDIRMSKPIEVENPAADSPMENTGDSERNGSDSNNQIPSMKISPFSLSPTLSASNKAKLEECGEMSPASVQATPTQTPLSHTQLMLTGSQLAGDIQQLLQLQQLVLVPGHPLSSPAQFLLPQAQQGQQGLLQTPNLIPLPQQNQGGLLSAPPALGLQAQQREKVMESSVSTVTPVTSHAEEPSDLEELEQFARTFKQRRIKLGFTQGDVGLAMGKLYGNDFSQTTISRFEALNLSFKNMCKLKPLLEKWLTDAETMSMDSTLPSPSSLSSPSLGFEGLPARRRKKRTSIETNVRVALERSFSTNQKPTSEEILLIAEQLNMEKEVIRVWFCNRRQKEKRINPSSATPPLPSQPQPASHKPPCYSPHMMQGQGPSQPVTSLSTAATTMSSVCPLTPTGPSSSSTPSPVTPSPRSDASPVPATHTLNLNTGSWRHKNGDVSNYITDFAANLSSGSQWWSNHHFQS

[2] = biological target: T2, Oct1 (in vitro translated) (Ictalurus punctatus (channel catfish; …, UniProt O57602 1-623); assay: EMSA; cold self competitor inhibits; anti-Oct1 abolishes shift; 1x Promega binding buffer (from 5x, composition not given), 30 min preincubation at room temperature then 30 min with probe; 5% native PAGE at 4°C; 100x competitor; pH and salt not given; extract EMSA as in Ross et al; settings: protein: ivt; label: 32P-dATP Klenow fill-in; 5' overhang 4 nt on both strands as annealed; labeled by Klenow fill-in
T2 sequence: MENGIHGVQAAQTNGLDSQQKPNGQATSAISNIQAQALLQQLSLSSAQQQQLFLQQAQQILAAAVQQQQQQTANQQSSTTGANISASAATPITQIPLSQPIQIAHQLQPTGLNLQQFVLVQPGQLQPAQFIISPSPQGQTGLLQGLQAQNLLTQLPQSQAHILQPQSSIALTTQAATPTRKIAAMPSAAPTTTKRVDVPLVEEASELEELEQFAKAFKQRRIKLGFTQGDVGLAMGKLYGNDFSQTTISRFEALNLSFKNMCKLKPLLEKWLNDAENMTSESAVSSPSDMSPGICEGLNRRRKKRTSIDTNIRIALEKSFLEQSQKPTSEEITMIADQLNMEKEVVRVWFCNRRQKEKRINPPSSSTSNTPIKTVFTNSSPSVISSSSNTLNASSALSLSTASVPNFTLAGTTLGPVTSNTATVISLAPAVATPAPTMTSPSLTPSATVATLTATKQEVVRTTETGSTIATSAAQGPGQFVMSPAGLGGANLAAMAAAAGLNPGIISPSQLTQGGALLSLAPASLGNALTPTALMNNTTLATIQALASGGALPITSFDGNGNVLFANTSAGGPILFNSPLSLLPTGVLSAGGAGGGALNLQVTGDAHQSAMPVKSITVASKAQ

B1: Eμ3' core enhancer first octamer (G-2110/G-2111) (dsDNA)
DNA 1: GCAAAACACTGCATGTAAATAGTCTAAT
DNA 2: CATTATTAGACTATTTACATGCAGTGTT
[1]
  binding result: binds
[2]
  binding result: binds
